# Source: patent US9951306B2, “Catalase in growth media” (EUCODIS BIOSCIENCE GMBH, priority 2012, dated 2018)
# Assays:
# [1] = test system: Bacillus subtilis ATCC 6633; test: Agar diffusion test: inhibition by hydrogen peroxide on TSA-LT agar plates with additives; type: cell-based; conditions: 10 μl on paper disc; for Inhibition on gamma-irradiated agar plates: gamma-irradiated 20.5 kGy; for Inhibition on agar plates: not irradiated
# [2] = test system: Bacillus subtilis ATCC 6633; test: Growth promotion test: colonies on TSA-LT agar plates treated with hydrogen peroxide; type: cell-based; conditions: for Colonies on agar: no catalase, hydrogen peroxide as in Example 3; for Colonies on gamma-irradiated agar / Colonies on agar plates: 300 μl 1% hydrogen peroxide (100 ppm in medium); for Colonies on gamma-irradiated agar: gamma-irradiated 20.5 kGy; for Colonies on agar plates: not irradiated
# [3] = 8000 international units of catalase per plate; cited from earlier work
# [4] = sodium pyruvate 2.00 g/l together with sodium thiosulfate 0.05 g/l, 2% hydrogen peroxide
# [5] = sodium pyruvate 2.00 g/l together with sodium thiosulfate 0.05 g/l, 5% hydrogen peroxide
# [6] = sodium pyruvate 2.00 g/l together with sodium thiosulfate 0.05 g/l, 8% hydrogen peroxide
# [7] = sodium pyruvate 2.00 g/l together with sodium thiosulfate 0.05 g/l, 10% hydrogen peroxide
# [8] = sodium pyruvate 2.00 g/l together with sodium thiosulfate 0.05 g/l
# [9] = 80 U/plate, 2% hydrogen peroxide
# [10] = 80 U/plate, 5% hydrogen peroxide
# [11] = 80 U/plate, 8% hydrogen peroxide
# [12] = 80 U/plate, 10% hydrogen peroxide
# [13] = 150 U/plate, 2% hydrogen peroxide
# [14] = 150 U/plate, 5% hydrogen peroxide
# [15] = 150 U/plate, 8% hydrogen peroxide
# [16] = 150 U/plate, 10% hydrogen peroxide
# [17] = 300 U/plate, 2% hydrogen peroxide
# [18] = 300 U/plate, 5% hydrogen peroxide
# [19] = 300 U/plate, 8% hydrogen peroxide
# [20] = 300 U/plate, 10% hydrogen peroxide
molecule,measurement,setting,value
"CC(=O)C(=O)[O-].[Na+] [Sodium pyruvate, reference compound]",Inhibition on gamma-irradiated agar plates,[1]; [4],0 mm
same,Inhibition on agar plates,[1]; [4],0 mm
same,Inhibition on gamma-irradiated agar plates,[1]; [5],1 mm
same,Inhibition on agar plates,[1]; [5],1 mm
same,Inhibition on gamma-irradiated agar plates,[1]; [6],2 mm
same,Inhibition on agar plates,[1]; [6],2 mm
same,Inhibition on gamma-irradiated agar plates,[1]; [7],3 mm
same,Inhibition on agar plates,[1]; [7],2.5 mm
same,growth in agar plates with hydrogen peroxide,[2]; 0.2 g/l sodium pyruvate and 0.005 g/l sodium thiosulfate without catalase,did not support growth
same,Colonies on agar,[2]; sodium pyruvate 0.20 g/l with sodium thiosulfate 0.005 g/l,0 CFU
same,Colonies on gamma-irradiated agar,[2]; [8],229 CFU
same,Colonies on agar plates,[2]; [8],161 CFU
same,Colonies on agar,[2]; sodium pyruvate 2.00 g/l with sodium thiosulfate 0.05 g/l,125 CFU
catalase,recovery,[3],60%
"Catalase from bovine liver: Catalase prepared from commercial product C9322 (Sigma), dissolved in 0.1 M potassium phosphate pH 7.0; comparator (protein, UniProt P00432 2-527, looked up) Catalase: ADNRDPASDQMKHWKEQRAAQKPDVLTTGGGNPVGDKLNSLTVGPRGPLLVQDVVFTDEMAHFDRERIPERVVHAKGAGAFGYFEVTHDITRYSKAKVFEHIGKRTPIAVRFSTVAGESGSADTVRDPRGFAVKFYTEDGNWDLVGNNTPIFFIRDALLFPSFIHSQKRNPQTHLKDPDMVWDFWSLRPESLHQVSFLFSDRGIPDGHRHMNGYGSHTFKLVNANGEAVYCKFHYKTDQGIKNLSVEDAARLAHEDPDYGLRDLFNAIATGNYPSWTLYIQVMTFSEAEIFPFNPFDLTKVWPHGDYPLIPVGKLVLNRNPVNYFAEVEQLAFDPSNMPPGIEPSPDKMLQGRLFAYPDTHRHRLGPNYLQIPVNCPYRARVANYQRDGPMCMMDNQGGAPNYYPNSFSAPEHQPSALEHRTHFSGDVQRFNSANDDNVTQVRTFYLKVLNEEQRKRLCENIAGHLKDAQLFIQKKAVKNFSDVHPEYGSRIQALLDKYNEEKPKNAVHTYVQHGSHLSAREKANL",Inhibition on gamma-irradiated agar plates,[1]; [9],3.5 mm
same,Inhibition on agar plates,[1]; [9],1 mm
same,Inhibition on gamma-irradiated agar plates,[1]; [10],7 mm
same,Inhibition on agar plates,[1]; [10],5 mm
same,Inhibition on gamma-irradiated agar plates,[1]; [11],8 mm
same,Inhibition on agar plates,[1]; [11],6 mm
same,Inhibition on gamma-irradiated agar plates,[1]; [12],8.5 mm
same,Inhibition on agar plates,[1]; [12],7 mm
same,Inhibition on gamma-irradiated agar plates,[1]; [13],2 mm
same,Inhibition on agar plates,[1]; [13],0.5 mm
same,Inhibition on gamma-irradiated agar plates,[1]; [14],6 mm
same,Inhibition on agar plates,[1]; [14],4 mm
same,Inhibition on gamma-irradiated agar plates,[1]; [15],7.5 mm
same,Inhibition on agar plates,[1]; [15],5 mm
same,Inhibition on gamma-irradiated agar plates,[1]; [16],8 mm
same,Inhibition on agar plates,[1]; [16],6 mm
same,Inhibition on gamma-irradiated agar plates,[1]; [17],1.5 mm
same,Inhibition on agar plates,[1]; [17],0 mm
same,Inhibition on gamma-irradiated agar plates,[1]; [18],5.5 mm
same,Inhibition on agar plates,[1]; [18],2 mm
same,Inhibition on gamma-irradiated agar plates,[1]; [19],6.5 mm
same,Inhibition on agar plates,[1]; [19],4 mm
same,Inhibition on gamma-irradiated agar plates,[1]; [20],7.5 mm
same,Inhibition on agar plates,[1]; [20],4.5 mm
same,Colonies on gamma-irradiated agar,[2]; 80 U/plate,0 CFU
same,Colonies on agar plates,[2]; 80 U/plate,0 CFU
same,Colonies on gamma-irradiated agar,[2]; 150 U/plate,0 CFU
same,Colonies on agar plates,[2]; 150 U/plate,0 CFU
same,Colonies on gamma-irradiated agar,[2]; 300 U/plate,0 CFU
same,Colonies on agar plates,[2]; 300 U/plate,0 CFU
same,recovery of the applied colony forming units,"[2]; highest tested concentration of 300 U/plate, not irradiated medium",0%
